Data on two molecules can be found in patent US6750046.

In this assay the target is thrombin. The assay can be described thus: cell-based or functional assay. As to conditions: for Antithrombin Units per mg Oil Body Proteins: scale: antithrombin units per mg oil body protein; for Thrombin Units Per Assay: scale: thrombin units per assay.

“hirudin released from the oleosin/hirudin fusion by Factor Xa”: the Antithrombin Units per mg Oil Body Proteins was 0.55 and the Thrombin Units Per Assay worked out at 0.0065.

B1: Arabidopsis oleosin/hirudin fusion (protein, part only; not given: Factor Xa cleavage junction, Hirudo medicinalis, not shown: small tags and cut ends)
chain, part: MADTARGTHHDIIGRDQYPMMGRDRDQYQMSGRGSDYSKSRQIAKAATAVTAGGSLLVLSSLTLVGTVIALTVATPLLVIFSPILVPALITVALLITGFLSSGGFGIAAITVFSWIYKYATGEHPQGSDKLDSARMKLGSKAQDLKDRAQYYGQQHTGGEHDRDRTRGGQHTT
B1 yielded an Antithrombin Units per mg Oil Body Proteins of under 0.001 and a Thrombin Units Per Assay of 0.14.
